What all share (test): SPR, Ab captured, PD-1 analyte
The target in test [1] is T1, recombinant hPD-1 (construct not stated) (human, UniProt Q15116 25-167, limits assumed).
T1 construct: also called huPD-1; Human PD1
The procedure: (§1) Recombinant humanized antibody variants of ZJN296 were expressed as human IgG1 in HEK293 cells. For SPR analysis (Biacore 8K, GE Healthcare) anti-human Fc IgG (Bethyl, A80-304P) was immobilized on CM5 chips (Cytiva) using 1×HBS-EP+ running buffer. […] 10 mM glycine (pH 1.5) as regeneration buffer was injected to flow cells following every dissociation phase.

In test [2] the target is T2, recombinant cynoPD-1 (construct not stated) (cynomolgus monkey, UniProt B0LAJ3 25-170).
T2 construct: not shown: probably His as elsewhere
T2 sequence (B0LAJ3 entry or part of it limits assumed): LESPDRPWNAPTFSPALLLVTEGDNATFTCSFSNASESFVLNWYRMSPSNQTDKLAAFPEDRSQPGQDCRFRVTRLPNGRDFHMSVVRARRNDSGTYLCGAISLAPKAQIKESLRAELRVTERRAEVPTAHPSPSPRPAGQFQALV
The procedure: as §1

The target in the next test is T3, hPD-1 His-tagged (human, UniProt Q15116 25-167).
T3 construct: also called recombinant hPD-1 (AcroBio)
T3 sequence (Q15116 25-167 limits assumed): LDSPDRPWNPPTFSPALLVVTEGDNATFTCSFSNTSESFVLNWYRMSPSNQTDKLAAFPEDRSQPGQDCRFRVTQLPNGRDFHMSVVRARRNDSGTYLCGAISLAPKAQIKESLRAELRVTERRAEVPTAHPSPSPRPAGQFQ
The procedure:
(§2) 10 mM glycine (pH 1.5) as regeneration buffer was injected to flow cells following every dissociation phase.

The target in test [3] is T4, cynoPD-1 His (AcroBiosystems PD1-C5223) (cynomolgus monkey, UniProt B0LAJ3 25-170).
T4 construct: also called cPD-1; cynomolgus PD-1 His-tagged
T4 sequence (B0LAJ3 entry or part of it limits assumed): as the sequence (B0LAJ3 entry or part of it limits assumed) above
The procedure: as §2

T1 sequence (Q15116 25-167 limits assumed): as the sequence (Q15116 25-167 limits assumed) above

B1: ZJN296-0 (antibody, human IgG1, V domains shown)
VH: QVQLVQSGAEVKKPGASVKVSCKASGYDFTSHWMHWVRQAPGQGLEWMGAIDPSDSYTNYNQKFKGRVTMTTDTSTSTAYMELRSLRSDDTAVYYCARSPFDYWGQGTTVTVSS
VL: DIQMTQSPSSLSASVGDRVTITCKASQDVSTAVAWYQQKPGKAPKLLIYSASYRYTGVPSRFSGSGSGTDFTFTISSLQPEDIATYYCQQHYSFPFTFGQGTKLEIK
notes: human IgG1; also called humanized ZJN296-0; GH + GL
For B1, in test [1], the dissociation constant (Kd) came out at 8.7 nM, the off-rate constant (koff) is 0.000495 s⁻¹ and the kon is 56900 M⁻¹ s⁻¹. Further, in test [2], the dissociation constant (Kd) stood at 104 nM, the koff was determined as 0.00641 s⁻¹ and the on-rate (kon) came out at 61500 M⁻¹ s⁻¹.

B2: ZJN296-3 (antibody, V domains shown)
VH: QVQLVQSGAEVKKPGASVKVSCKASGYDFTSHWMHWVRQAPGQGLEWMGAIDPSDSYTNYNQKFKGRVTMTTDRSTSTAYMELRSLRSDDTAVYYCARSPFDYWGQGTTVTVSS
VL: DIQMTQSPSSLSASVGDRVTITCKASQDVSTAVAWYQQKPGKAPKLLIYSASYRYTGVPSRFSGSGSGTDFTFTISSLQPEDIATYYCQQHYSFPFTFGQGTKLEIK
notes: human IgG1; also called GH + T073R, GL
For the molecule B2, in test [1], the dissociation constant (Kd) is 6.57 nM, the koff came to 0.000369 s⁻¹ and the kon was determined as 56100 M⁻¹ s⁻¹. In test [2], the dissociation constant (Kd) worked out at 107 nM, the koff was determined as 0.00511 s⁻¹ and the kon is 47600 M⁻¹ s⁻¹.

B3: ZJN296-6 (antibody, V domains shown)
VH: QVQLVQSGAEVKKPGASVKVSCKASGYDFTSHWMHWVRQAPGQGLEWMGAIDPSDSYTNYNQKFKGRVTMTVDRSTSTAYMELRSLRSDDTAVYYCARSPFDYWGQGTTVTVSS
VL: DIQMTQSPSSLSASVGDRVTITCKASQDVSTAVAWYQQKPGKAPKLLIYSASYRYTGVPSRFSGSGSGTDFTFTISSLQPEDIATYYCQQHYSFPFTFGQGTKLEIK
notes: human IgG1; also called GH + T071V + T073R, GL
As to B3, in test [1], the Kd came to 3.22 nM, the koff stood at 0.000201 s⁻¹ and the kon worked out at 62600 M⁻¹ s⁻¹. For the same molecule, in test [2], the dissociation constant Kd worked out at 43.9 nM, the koff was 0.00279 s⁻¹ and the kon was found to be 63600 M⁻¹ s⁻¹.

B4: ZJN296-2 (antibody, V domains shown)
VH: QVQLVQSGAEVKKPGASVKVSCKASGYDFTSHWMHWVRQAPGQGLEWMGAIDPSDSYTNYNQKFKGRVTMTVDTSTSTAYMELRSLRSDDTAVYYCARSPFDYWGQGTTVTVSS
VL: DIQMTQSPSSLSASVGDRVTITCKASQDVSTAVAWYQQKPGKAPKLLIYSASYRYTGVPSRFSGSGSGTDFTFTISSLQPEDIATYYCQQHYSFPFTFGQGTKLEIK
notes: human IgG1; also called GH + T071V, GL
As for B4, in test [1], the Kd amounted to 5.72 nM, the koff came to 0.000324 s⁻¹ and the kon is 56500 M⁻¹ s⁻¹. Also, in test [2], the equilibrium dissociation constant (Kd) stood at 72.7 nM, the off-rate constant (koff) came out at 0.00433 s⁻¹ and the on-rate constant (kon) was found to be 59600 M⁻¹ s⁻¹.

B5: 21A08Ap1 (antibody, V domains shown)
VH: EVQLLESGGGLVQPGGSLRLSCAASGFTFSINAMTWVRQAPGKGLEWVSTISGSGFSTYYADSLKGRFTISRDNSKNTLYLQMNSLRAEDTAVYYCAKEVYGDYWGQGTLVTVSS
VL: RSVLTQPPSASGTPGQRVSISCSGASSNIGSQSVFWYQQLPGTAPKLLIYSNNQRPSGVPDRFSGSKSGTSASLAISGLRSEDEADYYCAAWDDSLSIWVFGGGTKLTVL
notes: IgG with lambda light chain; also called 21A08p1; 21A8Ap1
In the test with hPD-1 His-tagged, B5 came in with a dissociation constant Kd of 0.5 nM, a dissociation rate constant (koff) of 2.9e-05 s⁻¹ and an on-rate constant (kon) of 57000 M⁻¹ s⁻¹. In test [3], this molecule had a Kd of 3 nM, a koff of 0.00016 s⁻¹ and an on-rate constant (kon) of 52000 M⁻¹ s⁻¹.

B6: 21A08Ap2 (antibody, V domains shown)
VH: EVQLLESGGGLVQPGGSLRLSCAASGFTFSINAMTWVRQAPGKGLEWVSTISGSGFSTYYADSLKGRFTISRDNSKNTLYLQMNSLRAEDTAVYYCAKEVYGDYWGQGTLVTVSS
VL: RSVLTQPPSASGTPGQRVSISCSGASSNIGSSSVFWYQQLPGTAPKLLIYSNNQRPSGVPDRFSGSKSGTSASLAISGLRSEDEADYYCAAWDDSLSIWVFGGGTKLTVL
notes: IgG with lambda light chain
As to B6, in the test with hPD-1 His-tagged, the Kd was 0.66 nM, the koff came to 4.2e-05 s⁻¹ and the on-rate (kon) came to 64000 M⁻¹ s⁻¹. Moreover, in test [3], the dissociation constant Kd worked out at 3.2 nM, the koff amounted to 0.00019 s⁻¹ and the on-rate constant (kon) came to 59000 M⁻¹ s⁻¹.

B7: 21A08Ap3 (antibody, V domains shown)
VH: EVQLLESGGGLVQPGGSLRLSCAASGFTFSINAMTWVRQAPGKGLEWVSTISGSGFSTYYADSLKGRFTISRDNSKNTLYLQMNSLRAEDTAVYYCAKEVYGDYWGQGTLVTVSS
VL: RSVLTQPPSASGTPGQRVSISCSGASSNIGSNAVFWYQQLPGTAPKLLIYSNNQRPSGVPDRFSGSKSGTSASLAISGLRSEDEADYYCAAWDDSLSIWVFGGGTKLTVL
notes: IgG
B7: in the test with hPD-1 His-tagged, binding was put at a Kd of 0.58 nM, the koff came out at 3.5e-05 s⁻¹ and the kon was 60000 M⁻¹ s⁻¹. Also, in test [3], the Kd was found to be 4.67 nM, the dissociation rate constant (koff) turned out to be 0.00025 s⁻¹ and the kon is 55000 M⁻¹ s⁻¹.
